Strand notation (5' to 3'): a small letter for the sugar, then the base; units joined by * are phosphorothioate-linked, units joined directly phosphodiester-linked; [ ] holds rarer units or linkages, { } end groups; capitals alone tell only the bases. m = 2'-O-methyl; r = 2'-OH (RNA)
B1: G000493: TTR sgRNA modified sequence, Human, SEQ ID No. 100; guide sequence of CR003368 (nucleic acid)
guide: mA*mA*mG*rUrGrCrCrUrUrCrCrArGrUrArArGrArUrUrGrUrUrUrUrArGrAmGmCmUmAmGmAmAmAmUmAmGmCrArArGrUrUrArArArArUrArArGrGrCrUrArGrUrCrCrGrUrUrArUrCrAmAmCmUmUmGmAmAmAmAmAmGmUmGmGmCmAmCmCmGmAmGmUmCmGmGmUmGmCmU*mU*mU*mU
B2: G000494: TTR sgRNA modified sequence, Human, SEQ ID No. 101; guide sequence of CR003360 (nucleic acid)
guide: mG*mU*mG*rArGrUrCrUrGrGrArGrArGrCrUrGrCrArUrGrUrUrUrUrArGrAmGmCmUmAmGmAmAmAmUmAmGmCrArArGrUrUrArArArArUrArArGrGrCrUrArGrUrCrCrGrUrUrArUrCrAmAmCmUmUmGmAmAmAmAmAmGmUmGmGmCmAmCmCmGmAmGmUmCmGmGmUmGmCmU*mU*mU*mU
B3: G000570: TTR sgRNA modified sequence, Human, SEQ ID No. 111; guide sequence of CR003347 (nucleic acid)
guide: mC*mA*mU*rUrGrArUrGrGrCrArGrGrArCrUrGrCrCrUrGrUrUrUrUrArGrAmGmCmUmAmGmAmAmAmUmAmGmCrArArGrUrUrArArArArUrArArGrGrCrUrArGrUrCrCrGrUrUrArUrCrAmAmCmUmUmGmAmAmAmAmAmGmUmGmGmCmAmCmCmGmAmGmUmCmGmGmUmGmCmU*mU*mU*mU
B4: G000571: TTR sgRNA modified sequence, Human, SEQ ID No. 112; guide sequence of CR005301 (nucleic acid)
guide: mG*mU*mC*rArCrArGrArArArCrArCrUrCrArCrCrGrUrGrUrUrUrUrArGrAmGmCmUmAmGmAmAmAmUmAmGmCrArArGrUrUrArArArArUrArArGrGrCrUrArGrUrCrCrGrUrUrArUrCrAmAmCmUmUmGmAmAmAmAmAmGmUmGmGmCmAmCmCmGmAmGmUmCmGmGmUmGmCmU*mU*mU*mU
B5: G000572: TTR sgRNA modified sequence, Human, SEQ ID No. 113; guide sequence of CR003385 (nucleic acid)
guide: mC*mC*mC*rCrUrArCrUrCrCrUrArUrUrCrCrArCrCrArGrUrUrUrUrArGrAmGmCmUmAmGmAmAmAmUmAmGmCrArArGrUrUrArArArArUrArArGrGrCrUrArGrUrCrCrGrUrUrArUrCrAmAmCmUmUmGmAmAmAmAmAmGmUmGmGmCmAmCmCmGmAmGmUmCmGmGmUmGmCmU*mU*mU*mU
B6: G000485: TTR sgRNA modified sequence, Human, SEQ ID No. 92; guide sequence of CR003336 (nucleic acid)
guide: mC*mC*mU*rCrCrUrCrUrGrCrCrUrUrGrCrUrGrGrArCrGrUrUrUrUrArGrAmGmCmUmAmGmAmAmAmUmAmGmCrArArGrUrUrArArArArUrArArGrGrCrUrArGrUrCrCrGrUrUrArUrCrAmAmCmUmUmGmAmAmAmAmAmGmUmGmGmCmAmCmCmGmAmGmUmCmGmGmUmGmCmU*mU*mU*mU
B7: G000498: TTR sgRNA modified sequence, Human, SEQ ID No. 105; guide sequence of CR003359 (nucleic acid)
guide: mA*mG*mU*rGrArGrUrCrUrGrGrArGrArGrCrUrGrCrArGrUrUrUrUrArGrAmGmCmUmAmGmAmAmAmUmAmGmCrArArGrUrUrArArArArUrArArGrGrCrUrArGrUrCrCrGrUrUrArUrCrAmAmCmUmUmGmAmAmAmAmAmGmUmGmGmCmAmCmCmGmAmGmUmCmGmGmUmGmCmU*mU*mU*mU
B8: G000484: TTR sgRNA modified sequence, Human, SEQ ID No. 91; guide sequence of CR003367 (nucleic acid)
guide: mA*mG*mA*rCrArCrCrArArArUrCrUrUrArCrUrGrGrArGrUrUrUrUrArGrAmGmCmUmAmGmAmAmAmUmAmGmCrArArGrUrUrArArArArUrArArGrGrCrUrArGrUrCrCrGrUrUrArUrCrAmAmCmUmUmGmAmAmAmAmAmGmUmGmGmCmAmCmCmGmAmGmUmCmGmGmUmGmCmU*mU*mU*mU
B9: G000483: TTR sgRNA modified sequence, Human, SEQ ID No. 90; guide sequence of CR005298 (nucleic acid)
guide: mU*mC*mC*rArCrUrCrArUrUrCrUrUrGrGrCrArGrGrArGrUrUrUrUrArGrAmGmCmUmAmGmAmAmAmUmAmGmCrArArGrUrUrArArArArUrArArGrGrCrUrArGrUrCrCrGrUrUrArUrCrAmAmCmUmUmGmAmAmAmAmAmGmUmGmGmCmAmCmCmGmAmGmUmCmGmGmUmGmCmU*mU*mU*mU
B10: G000490: TTR sgRNA modified sequence, Human, SEQ ID No. 97; guide sequence of CR003366 (nucleic acid)
guide: mA*mA*mA*rUrArGrArCrArCrCrArArArUrCrUrUrArCrGrUrUrUrUrArGrAmGmCmUmAmGmAmAmAmUmAmGmCrArArGrUrUrArArArArUrArArGrGrCrUrArGrUrCrCrGrUrUrArUrCrAmAmCmUmUmGmAmAmAmAmAmGmUmGmGmCmAmCmCmGmAmGmUmCmGmGmUmGmCmU*mU*mU*mU
B11: G000568: TTR sgRNA modified sequence, Human, SEQ ID No. 110; guide sequence of CR003391 (nucleic acid)
guide: mG*mG*mC*rUrGrUrCrGrUrCrArCrCrArArUrCrCrCrArGrUrUrUrUrArGrAmGmCmUmAmGmAmAmAmUmAmGmCrArArGrUrUrArArArArUrArArGrGrCrUrArGrUrCrCrGrUrUrArUrCrAmAmCmUmUmGmAmAmAmAmAmGmUmGmGmCmAmCmCmGmAmGmUmCmGmGmUmGmCmU*mU*mU*mU
B12: G000491: TTR sgRNA modified sequence, Human, SEQ ID No. 98; guide sequence of CR003338 (nucleic acid)
guide: mA*mU*mA*rCrCrArGrUrCrCrArGrCrArArGrGrCrArGrGrUrUrUrUrArGrAmGmCmUmAmGmAmAmAmUmAmGmCrArArGrUrUrArArArArUrArArGrGrCrUrArGrUrCrCrGrUrUrArUrCrAmAmCmUmUmGmAmAmAmAmAmGmUmGmGmCmAmCmCmGmAmGmUmCmGmGmUmGmCmU*mU*mU*mU

What was measured:
[1] = tested on: TTR; assay: EC50 and maximum editing in primary human hepatocytes treated with LNP formulated U-depleted Spy Cas9 mRNA and sgRNAs (Tables 19, 21); assay type: cell-based; parameters: key: % of sequence reads with indels or substitutions over total reads; conditions: Table 19, LNP with U-depleted Spy Cas9 mRNA and human specific sgRNAs, dose response
Experimental: (§1) Primary liver hepatocytes. Primary human liver hepatocytes (PHH) and primary cynomolgus liver hepatocytes (PCH) (Gibco) were cultured per the manufacturer's protocol (Invitrogen, protocol 11.28.2012). In brief, the cells were thawed and resuspended in hepatocyte thawing medium with supplements (Gibco, Cat. CM7000) followed by centrifugation at 100 g for 10 minutes for human and 80 g for 4 minutes for cyno. The supernatant was discarded and the pelleted cells resuspended in hepatocyte plating medium plus supplement pack (Invitrogen, Cat. A1217601 and CM3000). Cells were counted and plated on Bio-coat collagen I coated 96-well plates (ThermoFisher, Cat. 877272) at a density of 33,000 cells/well for human or 60,000 cells/well for cyno (or 65,000 cells/well when assaying effects on TTR protein, described further below). Plated cells were allowed to settle and adhere for 6 or 24 hours in a tissue culture incubator at 37° C. and 5% CO2 atmosphere. After incubation cells were checked for monolayer formation and media was replaced with hepatocyte culture medium with serum-free supplement pack (Invitrogen, Cat. A1217601 and CM4000).
For LNPs prepared using the cross-flow technique, the LNPs were formed by impinging jet mixing of the lipid in ethanol with two volumes of RNA solutions and one volume of water. The lipid in ethanol is mixed through a mixing cross with the two volumes of RNA solution. A fourth stream of water is mixed with the outlet stream of the cross through an inline tee. (See WO2016010840 FIG. 2.) The LNPs were held for 1 hour at room temperature, and further diluted with water (approximately 1:1 v/v). Diluted LNPs were concentrated using tangential flow filtration on a flat sheet cartridge (Sartorius, 100 kD MWCO) and then buffer exchanged by diafiltration into 50 mM Tris, 45 mM NaCl, 5% (w/v) sucrose, pH 7.5 (TSS). Alternatively, the final buffer exchange into TSS was completed with PD-10 desalting columns (GE). If required, formulations were concentrated by centrifugation with Amicon 100 kDa centrifugal filters (Millipore). The resulting mixture was then filtered using a 0.2 μm sterile filter. The final LNP was stored at 4° C. or −80° C. until further use.
(§2) To quantitatively determine the efficiency of editing at the target location in the genome, sequencing was utilized to identify the presence of insertions and deletions introduced by gene editing.
(§3) Primers were designed around the target site within the gene of interest (e.g. TTR), and the genomic area of interest was amplified.
(§4) Additional PCR was performed per the manufacturer's protocols (Illumina) to add chemistry for sequencing. The amplicons were sequenced on an Illumina MiSeq instrument. The reads were aligned to a reference genome (e.g., the human reference genome (hg38), the cynomologus reference genome (mf5), the rat reference genome (rn6), or the mouse reference genome (mm10)) after eliminating those having low quality scores. The resulting files containing the reads were mapped to the reference genome (BAM files), where reads that overlapped the target region of interest were selected and the number of wild type reads versus the number of reads which contain an insertion, substitution, or deletion was calculated.
The editing percentage (e.g., the “editing efficiency” or “percent editing” or “indel frequency”) is defined as the total number of sequence reads with insertions/deletions (“indels”) or substitutions over the total number of sequence reads, including wild type.
Lipid nanoparticle formulations of modified sgRNAs targeting human TTR and the cyno matched sgRNA sequences were tested on primary human hepatocytes and primary cyno hepatocytes in a dose response curve. Primary human and cyno hepatocytes were plated as described in Example 1. Both cell lines were incubated at 37° C., 5% CO2 for 24 hours prior to treatment with LNPs. […]

[2] = tested on: TTR; assay: TTR editing in primary cyno hepatocytes electroporated with Spy Cas9 protein and sgRNAs (Tables 14, 15); assay type: cell-based, cynomolgus monkey; conditions: Table 14; primary cyno hepatocytes electroporated with Spy Cas9 protein (RNP) and sgRNAs
Experimental: as §1
Ribonucleotide formation was performed prior to electroporation or transfection of Spy Cas9 protein loaded with guide RNAs (RNPs) onto cells. For dual guide (dgRNAs), individual crRNA and trRNA was pre-annealed by mixing equivalent amounts of reagent and incubating at 95° C. for 2 min and cooling to room temperature. Single guide (sgRNAs) were boiled at 95° C. for 2 min and cooling to room temperature. The boiled dgRNA or sgRNA was incubated with Spy Cas9 protein in Optimem for 10 minutes at room temperature to form a ribonucleoprotein (RNP) complex.
For RNP electroporation into primary human and cyno hepatocytes, the cells are thawed and resuspended in Lonza electroporation Primary Cell P3 buffer at a concentration of 2500 cells per μL for human hepatocytes and 3500 cells per μL for cyno hepatocytes. A volume of 20 μL of resuspended cells and 5 μL of RNP are mixed together per guide. 20 μL of the mixture is placed into a Lonza electroporation plate. The cells were electroporated using the Lonza nucleofector with the preset protocol EX-147. Post electroporation, the cells are transferred into a Biocoat plate containing pre-warmed maintenance media and placed in a tissue culture incubator at 37° C. and 5% CO2.
Transfected cells were harvested post-transfection at 24, 48, or 72 hours. The genomic DNA was extracted from each well of a 96-well plate using 50 μL/well BuccalAmp DNA Extraction solution (Epicentre, Cat. QE09050) per manufacturer's protocol. All DNA samples were subjected to PCR and subsequent NGS analyses, as described herein.
as §2, §3, §4
The editing percentage (e.g., the “editing efficiency” or “percent editing” or “indel frequency”) is defined as the total number of sequence reads with insertions/deletions (“indels”) or substitutions over the total number of sequence reads, including wild type. […]

Row | Molecule | Max Editing [1] | Avg % Deletion [2] | Avg % Edit [2] | Avg % Insert [2]
1 | B1 | 63.95 | 2.10% | 50.13% | 48.07%
2 | B2 | 75.70 | 2.07% | 81.53% | 79.57%
3 | B3 | 98.22 | – | – | –
4 | B4 | 71.28 | – | – | –
5 | B5 | 97.94 | – | – | –
6 | B6 | – | 1.07% | 22.93% | 22.00%
7 | B7 | – | 22.87% | 91.37% | 68.50%
8 | B8 | 94.14 | – | – | –
9 | B9 | 77.39 | – | – | –
10 | B10 | 94.16 | 7.27% | 61.67% | 54.47%
11 | B11 | 95.72 | – | – | –
12 | B12 | – | 1.90% | 66.20% | 64.37%

Reference: patent US11795460B2, “Compositions and methods for TTR gene editing and treating ATTR amyloidosis” (Intellia Therapeutics, Inc., priority 2017, dated 2023)
